According to US20250326840A1 (QURE BIOTECHNOLOGY SHANGHAI, published 2025):
One block for each binder: values may come before it.

Assays:
[1] = biological target: T1, QP094 (human SIRPα V1 ECD(E31-R370)-flag-his) (human, UniProt P78324 31-370); assay: SPR, Biacore T200
T1 construct: the construct carries flag and his tags; also called SIRPαV1-flag-his; SIRPαV1-his (QP094)

[2] = biological target: T2, QP096 (human SIRPα V2 ECD(E31-R370)-flag-his) (human); assay: SPR, Biacore T200
T2 construct: the construct carries flag and his tags; also called SIRPαV2-Flag-his; Human SIRPα V2 (QP096)

[3] = biological target: T3, QP002 (biotinylated in the blocking assays, sites not given); assay: blocking ELISA: CD47 FC (QP001) coated, biotin SIRPα-FC (QP002) mixed with the antibody, HRP-streptavidin; blocked ligand: CD47; unit from the x axis Log(Conc.(nM))
T3 construct: also called SIRPα-FC; Biotin-QP002

[4] = biological target: QP003 (PDL1-his); assay: ELISA, QP003 (PDL1-his) captured on coated anti-his, anti-hFc detection; unit from the x axis Log(Conc.(nM))
[5] = biological target: T4, PD-L1-his (QPP09) (human, UniProt Q9NZQ7 19-239, limits assumed); assay: SPR, Biacore 8K
T4 construct: also called human PD-L1; human PD-L1 recombinant protein

[6] = biological target: PD-L1-mouse Fc protein (human, UniProt Q9NZQ7 19-239, limits assumed); assay: blocking ELISA: QP1138 (PD1-FC) coated, PDL1-mouse FC mixed with the antibody, HRP anti-mouse IgG; blocked partner: PD-1; unit from the x axis Log(Conc.(nM))
[7] = biological target: T5, QP100 (cyno SIRPα (G7PGS8) ECD(E29-R368)-flag-his) (cynomolgus); assay: SPR, Biacore
T5 construct: the construct carries flag and his tags; also called cynoSIRPα-flag-his; Cynomolgus SIRPα (QP100)
T5 chain: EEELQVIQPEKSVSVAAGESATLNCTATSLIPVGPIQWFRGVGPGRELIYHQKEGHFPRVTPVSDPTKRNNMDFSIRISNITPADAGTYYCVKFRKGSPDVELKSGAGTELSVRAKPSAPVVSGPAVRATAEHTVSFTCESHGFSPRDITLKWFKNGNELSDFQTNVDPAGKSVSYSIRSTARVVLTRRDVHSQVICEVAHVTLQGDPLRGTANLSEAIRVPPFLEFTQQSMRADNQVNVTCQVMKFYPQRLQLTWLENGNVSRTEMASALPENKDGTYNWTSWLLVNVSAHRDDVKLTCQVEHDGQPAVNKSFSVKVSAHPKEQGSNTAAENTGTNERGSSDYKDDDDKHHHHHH

[8] = biological target: T1, QP094 (human SIRPα V1 …); assay: SPR, Biacore
[9] = biological target: T2, QP096 (human SIRPα V2 …); assay: SPR, Biacore
[10] = biological target: T3, QP002; assay: blocking ELISA: QP001.2 (CD47) coated, biotin-QP002 (SIRPα-FC) mixed with the antibody, HRP-streptavidin; blocked ligand: CD47
[11] = biological target: T6, QP098 (cyno SIRPα (I7G9Z7) ECD(E31-R369)-flag-his) (cynomolgus); assay: binding ELISA, antigen coated
T6 construct: the construct carries flag and his tags; also called cynoSIRPα (ECD); cynomolgus SIRPα
T6 chain: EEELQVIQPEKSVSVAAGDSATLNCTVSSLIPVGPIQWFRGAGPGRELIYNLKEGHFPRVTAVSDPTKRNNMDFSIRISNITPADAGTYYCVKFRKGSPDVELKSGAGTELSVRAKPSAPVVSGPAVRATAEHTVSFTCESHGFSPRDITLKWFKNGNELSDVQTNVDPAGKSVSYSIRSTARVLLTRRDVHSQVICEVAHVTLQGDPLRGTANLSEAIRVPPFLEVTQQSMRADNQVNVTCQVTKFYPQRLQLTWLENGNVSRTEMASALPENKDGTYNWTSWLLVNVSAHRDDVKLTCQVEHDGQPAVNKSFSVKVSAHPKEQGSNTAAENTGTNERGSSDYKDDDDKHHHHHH

[12] = biological target: T5, QP100 (cyno SIRPα (G7PGS8) …); assay: binding ELISA, antigen coated
[13] = biological target: T1, QP094 (human SIRPα V1 …); assay: binding ELISA, antigen coated
[14] = biological target: T2, QP096 (human SIRPα V2 …); assay: binding ELISA, antigen coated
[15] = biological target: T7, QP273 (cynoSIRPα2-flag-his T-557-14) (cynomolgus); assay: binding ELISA, antigen coated
T7 construct: also called cynomolgus SIRPα (QP273)
T7 chain: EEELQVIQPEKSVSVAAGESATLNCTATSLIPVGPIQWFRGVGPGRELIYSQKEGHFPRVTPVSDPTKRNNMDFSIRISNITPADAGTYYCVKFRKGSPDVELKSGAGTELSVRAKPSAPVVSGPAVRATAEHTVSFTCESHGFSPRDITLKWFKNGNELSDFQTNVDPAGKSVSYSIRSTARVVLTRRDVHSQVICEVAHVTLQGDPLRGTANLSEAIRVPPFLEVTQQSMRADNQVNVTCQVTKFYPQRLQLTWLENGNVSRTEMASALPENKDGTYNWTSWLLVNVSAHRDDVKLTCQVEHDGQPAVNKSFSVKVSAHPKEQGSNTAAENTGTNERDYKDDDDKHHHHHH

[16] = biological target: T8, QP271 (rhesus SIRPα1-flag-his T-557-28) (rhesus monkey); assay: binding ELISA, antigen coated
T8 construct: also called rhesus monkey SIRPα (QP271); monkeySIRPα1-flag-his
T8 chain: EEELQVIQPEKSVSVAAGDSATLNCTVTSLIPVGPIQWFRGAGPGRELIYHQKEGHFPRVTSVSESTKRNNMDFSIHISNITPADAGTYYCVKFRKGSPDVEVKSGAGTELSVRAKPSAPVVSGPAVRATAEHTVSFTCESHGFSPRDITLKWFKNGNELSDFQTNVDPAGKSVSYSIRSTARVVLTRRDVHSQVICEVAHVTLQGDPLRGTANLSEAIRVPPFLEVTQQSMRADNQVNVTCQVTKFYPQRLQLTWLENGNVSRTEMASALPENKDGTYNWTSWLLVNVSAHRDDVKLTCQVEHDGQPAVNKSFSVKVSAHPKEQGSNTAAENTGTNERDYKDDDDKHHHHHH

[17] = biological target: T6, QP098 (cyno SIRPα (I7G9Z7) …); assay: SPR, Biacore
[18] = biological target: T1, QP094 (human SIRPα V1 …); assay: SPR, Biacore; remark: listed apart in the source
[19] = biological target: T2, QP096 (human SIRPα V2 …); assay: SPR, Biacore; remark: listed apart in the source
[20] = biological target: T7, QP273 (cynoSIRPα2-flag-his T-557-14); assay: SPR, Biacore
[21] = biological target: T8, QP271 (rhesus SIRPα1-flag-his T-557-28); assay: SPR, Biacore

T4 sequence (Q9NZQ7 19-239 limits assumed): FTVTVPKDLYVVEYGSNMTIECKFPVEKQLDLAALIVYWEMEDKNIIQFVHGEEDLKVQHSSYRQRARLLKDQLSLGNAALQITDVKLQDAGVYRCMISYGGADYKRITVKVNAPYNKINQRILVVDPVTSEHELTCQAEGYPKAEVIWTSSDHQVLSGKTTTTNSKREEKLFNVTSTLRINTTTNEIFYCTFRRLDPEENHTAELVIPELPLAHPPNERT
Chain of QP003 (PDL1-his) (chain, as listed by the source limits assumed): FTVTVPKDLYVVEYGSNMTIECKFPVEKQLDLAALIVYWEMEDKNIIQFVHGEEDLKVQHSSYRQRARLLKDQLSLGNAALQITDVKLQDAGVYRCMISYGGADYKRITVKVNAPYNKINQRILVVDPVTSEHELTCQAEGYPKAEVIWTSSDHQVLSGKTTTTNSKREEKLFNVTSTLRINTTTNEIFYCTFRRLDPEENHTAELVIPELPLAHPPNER
Chain of PD-L1-mouse Fc protein (Q9NZQ7 19-239 limits assumed): as the sequence (Q9NZQ7 19-239 limits assumed) above

Kd [1]: 5.12 nM
koff [1]: 0.00465 s⁻¹
kon [1]: 908000 M⁻¹ s⁻¹
Kd [2]: 12.3 nM
koff [2]: 0.0246 s⁻¹
kon [2]: 2.01e+06 M⁻¹ s⁻¹
IC50 [3]: 0.295 nM
B1: QP026027 (antibody, human IgG1, kappa)
heavy: not shown
light: QIVLTQSPAIMSASPGEKVTLTCSASSSVSSSYLYWYQQKPGSSPKLWIYSTSNLASGVPARFSGSGSGTSYSLTISSMEAEDAASYFCHQWSSYPRTFGAGTKLELKRTVAAPSVFIFPPSDEQLKSGTASVVCLLNNFYPREAKVQWKVDNALQSGNSQESVTEQDSKDSTYSLSSTLTLSKADYEKHKVYACEVTHQGLSSPVTKSFNRGEC
notes: also called KWAR23 (QP026027); control antibody KWAR23, human IgG1

EC50 [4]: 0.0133 nM
Kd [5]: 1.29 nM
koff [5]: 0.00103 s⁻¹
kon [5]: 801000 M⁻¹ s⁻¹
IC50 [6]: 0.59 nM
B2: QP32700625 (bispecific antibody, human IgG1, kappa, L234A L235A)
heavy: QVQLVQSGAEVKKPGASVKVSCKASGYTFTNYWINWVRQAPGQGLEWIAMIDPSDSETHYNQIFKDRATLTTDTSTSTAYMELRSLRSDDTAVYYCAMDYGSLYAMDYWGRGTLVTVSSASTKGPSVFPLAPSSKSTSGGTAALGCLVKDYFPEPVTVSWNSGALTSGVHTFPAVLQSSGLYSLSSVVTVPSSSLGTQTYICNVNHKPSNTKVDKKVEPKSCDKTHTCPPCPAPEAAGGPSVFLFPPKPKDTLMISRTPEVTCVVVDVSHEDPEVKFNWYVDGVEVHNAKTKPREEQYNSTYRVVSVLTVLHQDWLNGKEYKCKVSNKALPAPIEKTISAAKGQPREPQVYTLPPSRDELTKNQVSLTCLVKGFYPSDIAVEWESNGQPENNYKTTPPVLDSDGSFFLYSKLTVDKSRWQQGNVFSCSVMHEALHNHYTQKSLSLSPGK
light: EVQLLESGGGLVQPGGSLRLSCAASGFTLDDYAIGWFRQAPGKGREGVSCISKSGETTFFVESVKDRFTISRDNSKNTLYLQMNSLRAEDTAVYYCATGSWCTVGSMSRQFYRQFFHSWGQGTLVTVSSGGGGSGGGGSGGGGSDIVLTQSPDSLAVSLGERATINCRASQSVRSSGYNWIFWYQQKPGQPPKLLIYLASNRDSGVPDRFSGSGSGTDFTLTISSLQAEDVAVYYCQHSRELPTFGQGTKLEIKRTVAAPSVFIFPPSDEQLKSGTASVVCLLNNFYPREAKVQWKVDNALQSGNSQESVTEQDSKDSTYSLSSTLTLSKADYEKHKVYACEVTHQGLSSPVTKSFNRGEC
notes: Anti-PD-L1 VHH-(G4S)3 fused to the N-terminus of the light chain

Kd [7]: 77.9 nM
koff [7]: 0.196 s⁻¹
kon [7]: 2.52e+06 M⁻¹ s⁻¹
Kd [8]: 0.336 nM
koff [8]: 0.00079 s⁻¹
kon [8]: 2.35e+06 M⁻¹ s⁻¹
Kd [9]: 0.319 nM
koff [9]: 0.00109 s⁻¹
kon [9]: 3.42e+06 M⁻¹ s⁻¹
IC50 (read off the curve) [10]: ~0.02 µg/mL
EC50 [11]: 1.26 ng/mL
EC50 [12]: 1.72 ng/mL
EC50 [13]: 1.19 ng/mL
EC50 [14]: 1.19 ng/mL
EC50 [15]: 1.51 ng/mL
EC50 [16]: 0.947 ng/mL
Kd [17]: 26.8 nM
Kd [18]: 0.26 nM
Kd [19]: 0.276 nM
Kd [20]: 12.7 nM
Kd [21]: 7.97 nM
B3: QP256253 (antibody, human IgG4, V domains shown)
VH: QVQLVQSGAEVKKPGASVKVSCKASGYTFTNYWINWVRQAPGQGLEWIAMIDPSDSETHYNQIFKDRATLTTDTSTSTAYMELRSLRSDDTAVYYCAMDYGSLYAMDYWGRGTLVTVSS
VL: DIVLTQSPDSLAVSLGERATINCRASKSVSSSGYNYIFWYQQKPGQPPKLLIYLASNLDSGVPDRFSGSGSGTDFTLTISSLQAEDVAVYYCQHSRELPTFGQGTKLEIK
notes: also called humanized antibody QP256253; QP163164 humanized clone
